# Laboratory results published in publication PMC10699790.
# Target: HA-Halo-mGluR3 (rat), P31422
# Experiment: single-molecule pulldown
# Conditions: remark: other sources report otherwise
binder,measurement,value
"HA-Halo-mGluR3, P31422 23-879 (receptor, here or on the partner: Halo tag labeled with CA-SS-Alexa-488; Halo tag labeled with CA-SS-Alexa-488) LGDHNFMRREIKIEGDLVLGGLFPINEKGTGTEECGRINEDRGIQRLEAMLFAIDEINKDNYLLPGVKLGVHILDTCSRDTYALEQSLEFVRASLTKVDEAEYMCPDGSYAIQENIPLLIAGVIGGSYSSVSIQVANLLRLFQIPQISYASTSAKLSDKSRYDYFARTVPPDFYQAKAMAEILRFFNWTYVSTVASEGDYGETGIEAFEQEARLRNICIATAEKVGRSNIRKSYDSVIRELLQKPNARVVVLFMRSDDSRELIAAANRVNASFTWVASDGWGAQESIVKGSEHVAYGAITLELASHPVRQFDRYFQSLNPYNNHRNPWFRDFWEQKFQCSLQNKRNHRQVCDKHLAIDSSNYEQESKIMFVVNAVYAMAHALHKMQRTLCPNTTKLCDAMKILDGKKLYKEYLLKINFTAPFNPNKGADSIVKFDTFGDGMGRYNVFNLQQTGGKYSYLKVGHWAETLSLDVDSIHWSRNSVPTSQCSDPCAPNEMKNMQPGDVCCWICIPCEPYEYLVDEFTCMDCGPGQWPTADLSGCYNLPEDYIKWEDAWAIGPVTIACLGFLCTCIVITVFIKHNNTPLVKASGRELCYILLFGVSLSYCMTFFFIAKPSPVICALRRLGLGTSFAICYSALLTKTNCIARIFDGVKNGAQRPKFISPSSQVFICLGLILVQIVMVSVWLILETPGTRRYTLPEKRETVILKCNVKDSSMLISLTYDVVLVILCTVYAFKTRKCPENFNEAKFIGFTMYTTCIIWLAFLPIFYVTSSDYRVQTTTMCISVSLSGFVVLGCLFAPKVHIVLFQPQKNVVTHRLHLNRFSVSGTATTYSQSSASTYVPTVCNGREVLDSTTSSL",stoichiometry N,2
